Results taken from patent US7498127 (dated 2009).

B1: PLZF protein derivative consisting only of a region of Zn6 to Zn7 (other, UniProt Q05516 546-596, looked up)
chain: YECEFCGSCFRDESTLKSHKRIHTGEKPYECNGCGKKFSLKHQLETHYRVH
notes: domain: Zn6 to Zn7; also called FLAG-tagged PLZF protein derivative 7); not shown: FLAG synthetic octapeptide tag (Sigma-Aldrich)
B2: PLZF protein derivative consisting only of the BTB region (other, UniProt Q05516 1-132, looked up)
chain: MDLTKMGMIQLQNPSHPTGLLCKANQMRLAGTLCDVVIMVDSQEFHAHRTVLACTSKMFEILFHRNSQHYTLDFLSPKTFQQILEYAYTATLQAKAEDLDDLLYAAEILEIEYLEEQCLKMLETIQASDDND
notes: domain: BTB region; also called FLAG-tagged PLZF protein derivative 6); not shown: FLAG synthetic octapeptide tag (Sigma-Aldrich)
B3: Bcl-6 protein derivative consisting only of a region of Zn1 to Zn4 (other, UniProt P41182 518-624, looked up, not shown: small tags and cut ends)
chain: FFCNECDCRFSEEASLKRHTLQTHSDKPYKCDRCQASFRYKGNLASHKTVHTGEKPYRCNICGAQFNRPANLKTHTRIHSGEKPYKCETCGARFVQVAHLRAHVLIH
notes: domain: Zn1 to Zn4; also called Bcl-6 protein derivative 8)

Key:
[1] = molecular target: T1, GST binding HB-EGF remaining fragment (UniProt P08515 1-218 = GST; Q99075 185-208); assay: GST pull-down, anti-FLAG immunoblot
T1 construct: also called remaining fragments of HB-EGF
Procedure: Test Method (1) In order to specify a region of PLZF protein that interacts with a remaining fragment, GST pull-down assay was performed.
(2) GST, GST binding HB-LGF remaining fragments that were expressed and isolated with *E. coli* BL21 strain according to the GST pull-down assay standard protocol were used. The fragments were bound to Glutathione Sepharose beads, and then cell lysates containing various FLAG-tagged PLZF protein derivatives were incubated with 20 µl of the beads at 4° C. for two hours. After washing with water, the bound protein was analyzed by immunoblotting using anti-FLAG antibody (referring to the peptide sold under the trademark FLAG by Sigma Aldrich Co.).

[2] = molecular target: T1, GST binding HB-EGF remaining fragment; assay: GST pull-down, same method as Test Example 1

T1 sequence (P08515 1-218, tags or fused parts left off): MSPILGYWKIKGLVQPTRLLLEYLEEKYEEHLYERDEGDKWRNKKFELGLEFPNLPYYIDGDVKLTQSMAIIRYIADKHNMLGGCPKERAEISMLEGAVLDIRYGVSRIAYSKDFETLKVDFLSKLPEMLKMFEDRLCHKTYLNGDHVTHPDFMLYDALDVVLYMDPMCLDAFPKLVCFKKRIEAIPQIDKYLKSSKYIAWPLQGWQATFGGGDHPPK

| Binder | binding result [1] | binding result [2] |
| --- | --- | --- |
| B1 | no binding |  |
| B2 | no binding |  |
| B3 |  | no binding |
